From doi:10.1101/2020.06.11.146753, “Insights into glycan import by a prominent gut symbiont” (bioRxiv, 2020)

T1: Bt1763 (SusC) (Bacteroides thetaiotaomicron VPI-5482, UniProt Q8A6W3 26-1041)
T1 construct: Bt1763, SusC TonB-dependent transporter of the levan PUL, Bacteroides thetaiotaomicron VPI-5482; Untagged; isolated through the His6 tag on Bt1762; NTE invisible in the X-ray structures; plug domain absent from closed, empty transporters; also called SusC TonB-dependent transporter; source: B. thetaiotaomicron (Bt1762-his strain) grown on MM-fructose, outer membrane fraction in LDAO; purified …
T1 sequence (looked up): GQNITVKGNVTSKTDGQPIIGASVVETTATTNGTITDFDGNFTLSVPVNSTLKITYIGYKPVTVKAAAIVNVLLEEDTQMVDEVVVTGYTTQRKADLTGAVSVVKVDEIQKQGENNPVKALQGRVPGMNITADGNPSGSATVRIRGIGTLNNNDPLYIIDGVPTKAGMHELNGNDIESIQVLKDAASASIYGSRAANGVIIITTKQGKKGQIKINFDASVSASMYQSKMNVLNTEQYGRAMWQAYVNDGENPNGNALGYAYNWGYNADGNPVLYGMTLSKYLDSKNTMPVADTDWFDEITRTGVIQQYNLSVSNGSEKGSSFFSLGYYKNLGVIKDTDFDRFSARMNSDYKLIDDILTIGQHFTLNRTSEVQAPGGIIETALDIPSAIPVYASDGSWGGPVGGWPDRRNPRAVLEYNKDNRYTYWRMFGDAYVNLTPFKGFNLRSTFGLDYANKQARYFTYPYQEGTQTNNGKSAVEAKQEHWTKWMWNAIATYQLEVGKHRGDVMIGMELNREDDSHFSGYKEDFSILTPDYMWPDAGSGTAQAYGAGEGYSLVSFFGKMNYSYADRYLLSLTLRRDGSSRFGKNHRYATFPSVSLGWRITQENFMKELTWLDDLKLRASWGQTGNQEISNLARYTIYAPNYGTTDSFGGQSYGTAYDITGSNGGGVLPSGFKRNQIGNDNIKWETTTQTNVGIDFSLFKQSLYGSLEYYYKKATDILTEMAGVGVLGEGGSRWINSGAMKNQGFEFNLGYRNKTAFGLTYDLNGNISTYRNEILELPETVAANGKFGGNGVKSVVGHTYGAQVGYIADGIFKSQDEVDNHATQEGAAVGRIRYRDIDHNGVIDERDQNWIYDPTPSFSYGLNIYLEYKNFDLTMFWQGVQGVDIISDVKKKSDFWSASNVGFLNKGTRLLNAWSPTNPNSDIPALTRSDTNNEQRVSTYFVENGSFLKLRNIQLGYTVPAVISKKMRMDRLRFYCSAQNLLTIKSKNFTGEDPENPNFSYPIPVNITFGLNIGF


What was measured:
Bt1763 (SusC) = biological target: T1, Bt1763 (SusC); test: crystal structure; Bt1762-63 purified from B. theta in 10 mM Hepes/100 mM NaCl/0.4% C8E4 pH 7.5; crystallised without ligand and after incubation with 2.5 mM β2,6 FOS; conditions: both partners purified
[1] = biological target: the molecule itself; test: native MS; purified Bt1762-63 in 0.5% C8E4, 0.2 M ammonium acetate, pH 6.9; ligand-free and with FOS fractions

| binding result (Bt1763 (SusC)) | Binder | stoichiometry N [1] |
| --- | --- | --- |
| binds | Bt1762 (SusD), C-terminal His6 tag, from the B. theta Bt1762-his strain (natural protein, Bacteroides thetaiotaomicron VPI-5482, UniProt Q8A6W4 19-570, looked up, lipid anchor (lipoprotein), Chromosomally tagged, expressed natively; always isolated together with Bt1763; also called SusD lid; WT Bt1762; source: B. thetaiotaomicron (Bt1762-his strain) grown on MM-fructose, outer membrane fraction in LDAO; purified with Bt1763 (IMAC, SEC); not shown: His6, C-terminal, kept) CDDFLDRQVPQGIVTGDQIASPEYVDNLVISAYAIWATGDDINSSFSLWNYDVRSDDCYKGGSGTEDGGVFNALEISKGINTTDWNINDIWKRLYQCITRANTALQSLDQMDEKTYPLKNQRIAEMRFLRGHAHFMLKQLFKKIVIVNDENMEPDAYNELSNTTYTNDEQWQKIADDFQFAYDNLPEVQIEKGRPAQAAAAAYLAKTYLYKAYRQDGADNALTGINEEDLKQVVKYTDPLIMAKGGYGLETDYSMNFLPQYENGAESVWAIQYSINDGTYNGNLNWGMGLTTPQILGCCDFHKPSQNLVNAFKTDSQGKPLFSTYDNENYEVATDNVDPRLFHTVGMPGFPYKYNEGYIIQKNDDWSRSKGLYGYYVSLKENVDPDCDCLKKGSYWASSLNHIVIRYADVLLMRAEALIQLNDGRITDAISLINEVRSRAAGSTMLIFNYKEDYGVNFKVTPYDLKAYAQDEAMKMLKWERRVEFGMESSRFFDLVRWGEAKDVINAYYVTEASRCSIYKNAGFTENKNEYLPVPFEQISASNGNYTQNFGW |  |
|  | Bt1762-63 SusCD complex (one Bt1762 and one Bt1763), the unit that pairs into SusC2D2 (complex, Bacteroides thetaiotaomicron VPI-5482, lipid anchor (lipoprotein), Bt1762 (SusD), Bacteroides thetaiotaomicron VPI-5482; as the chain of m1. numbers count on: the mature protein; Bt1763 (SusC), Bacteroides thetaiotaomicron VPI-5482; as the chain of m2. numbers count on: the mature protein; Used for the self-association of the SusCD unit into the SusC2D2 dimer; also called Bt1762-Bt1763; SusCD monomer; source: B. thetaiotaomicron (Bt1762-his strain) grown on …) chain 1: CDDFLDRQVPQGIVTGDQIASPEYVDNLVISAYAIWATGDDINSSFSLWNYDVRSDDCYKGGSGTEDGGVFNALEISKGINTTDWNINDIWKRLYQCITRANTALQSLDQMDEKTYPLKNQRIAEMRFLRGHAHFMLKQLFKKIVIVNDENMEPDAYNELSNTTYTNDEQWQKIADDFQFAYDNLPEVQIEKGRPAQAAAAAYLAKTYLYKAYRQDGADNALTGINEEDLKQVVKYTDPLIMAKGGYGLETDYSMNFLPQYENGAESVWAIQYSINDGTYNGNLNWGMGLTTPQILGCCDFHKPSQNLVNAFKTDSQGKPLFSTYDNENYEVATDNVDPRLFHTVGMPGFPYKYNEGYIIQKNDDWSRSKGLYGYYVSLKENVDPDCDCLKKGSYWASSLNHIVIRYADVLLMRAEALIQLNDGRITDAISLINEVRSRAAGSTMLIFNYKEDYGVNFKVTPYDLKAYAQDEAMKMLKWERRVEFGMESSRFFDLVRWGEAKDVINAYYVTEASRCSIYKNAGFTENKNEYLPVPFEQISASNGNYTQNFGW chain 2: GQNITVKGNVTSKTDGQPIIGASVVETTATTNGTITDFDGNFTLSVPVNSTLKITYIGYKPVTVKAAAIVNVLLEEDTQMVDEVVVTGYTTQRKADLTGAVSVVKVDEIQKQGENNPVKALQGRVPGMNITADGNPSGSATVRIRGIGTLNNNDPLYIIDGVPTKAGMHELNGNDIESIQVLKDAASASIYGSRAANGVIIITTKQGKKGQIKINFDASVSASMYQSKMNVLNTEQYGRAMWQAYVNDGENPNGNALGYAYNWGYNADGNPVLYGMTLSKYLDSKNTMPVADTDWFDEITRTGVIQQYNLSVSNGSEKGSSFFSLGYYKNLGVIKDTDFDRFSARMNSDYKLIDDILTIGQHFTLNRTSEVQAPGGIIETALDIPSAIPVYASDGSWGGPVGGWPDRRNPRAVLEYNKDNRYTYWRMFGDAYVNLTPFKGFNLRSTFGLDYANKQARYFTYPYQEGTQTNNGKSAVEAKQEHWTKWMWNAIATYQLEVGKHRGDVMIGMELNREDDSHFSGYKEDFSILTPDYMWPDAGSGTAQAYGAGEGYSLVSFFGKMNYSYADRYLLSLTLRRDGSSRFGKNHRYATFPSVSLGWRITQENFMKELTWLDDLKLRASWGQTGNQEISNLARYTIYAPNYGTTDSFGGQSYGTAYDITGSNGGGVLPSGFKRNQIGNDNIKWETTTQTNVGIDFSLFKQSLYGSLEYYYKKATDILTEMAGVGVLGEGGSRWINSGAMKNQGFEFNLGYRNKTAFGLTYDLNGNISTYRNEILELPETVAANGKFGGNGVKSVVGHTYGAQVGYIADGIFKSQDEVDNHATQEGAAVGRIRYRDIDHNGVIDERDQNWIYDPTPSFSYGLNIYLEYKNFDLTMFWQGVQGVDIISDVKKKSDFWSASNVGFLNKGTRLLNAWSPTNPNSDIPALTRSDTNNEQRVSTYFVENGSFLKLRNIQLGYTVPAVISKKMRMDRLRFYCSAQNLLTIKSKNFTGEDPENPNFSYPIPVNITFGLNIGF | 2 |
